The values that follow come from article PMC7641332 (Nucleic Acids Research, 2020).

The chains are these.
B1: 2× MBP-BRCA2CT-FLAG-His10 (domain or fragment)
chain: QEKSLKASKSTPDGTIKDRRLFMHHVSLEPITCVPFRTTKERQEIQNPNFTAPGQEFLSKSHLYEHLTLEKSSSNLAVSGHPFYQVSATRNEKMRHLITTGRPTKVFVPPFKTKSHFHRVEQCVRNINLEENRQKQNIDGHGSDDSKNKINDNEIHQFNKNNSNQAVAVTFTKCEEEPLDLITSLQNARDIQDMRIKKKQRQRVFPQPGSLYLAKTSTLPRISLKAAVGGQVPSACSHKQLYTYGVSKHCIKINSKNAESFQFHTEDYFGKESLWTGKGIQLADGGWLIPSNDGKAGKEEFYRALCDTPGVDPKLISRIWVYNHYRWIIWKLAAMECAFPKEFANRCLSPERVLLQLKYRYDTEIDRSRRSAIKKIMERDDTAAKTLVLCVSDIISLSANISETSSNKTSSADTQKVAIIELTDGWYAVKAQLDPPLLAVLKNGRLTVGQKIILHGAELVGSPDACTPLEAPESLMLKISANSTRPARWYTKLGFFPDPRPFPLPLSSLFSDGGNVGCVDVIIQRAYPIQWMEKTSSGLYIFRNEREEEKEAAKYVEAQQKRLEALFTKIQEEFEEHEENTTKPYLPSRALTRQQVRALQDGAELYEAVKNAADPAYLEGYFSEEQLRALNNHRQMLNDKKQAQIQLEIRKAMESAEQKEQGLSRDVTTVWKLRIVSYSKKEKDSVILSIWRPSSDLYSLLTEGKRYRIYHLATSKSKSKSERANIQLAATKKTQYQQLPVSDEILFQIYQPREPLHFSKFLDPDFQPSCSEVDLIGFVVSVVKKTGLAPFVYLSDECYNLLAIKFWIDLNEDIIKPHMLIAASNLQWRPESKSGLLTLFAGDFSVFSASPKEGHFQETFNKMKNTVENIDILCNEAENKLMHILHANDPKWSTPTKDCTSGPYTAQIIPGTGNKLLMSSPNCEIYYQSPLSLCMAKRKSVSTPVSAQMTSKSCKGEKEIDDQKNCKKRRALDFLSRLPLPPPVSPICTFVSPAAQKAFQPPRSCGTKYETPIKKKELNSPQMTPFKKFNEISLLESNSIADEELALINTQALLSGSTGEKQFISVSESTRTAPTSSEDYLRLKRRCTTSLIKEQESSQASTEECEKNKQDTITTKKYI
B4: GST-BRCA2NT-HA-His10 (domain or fragment)
chain: MPIGSKERPTFFEIFKTRCNKADLGPISLNWFEELSSEAPPYNSEPAEESEHKNNNYEPNLFKTPQRKPSYNQLASTPIIFKEQGLTLPLYQSPVKELDKFKLDLGRNVPNSRHKSLRTVKTKMDQADDVSCPLLNSCLSESPVVLQCTHVTPQRDKSVVCGSLFHTPKFVKGRQTPKHISESLGAEVDPDMSWSSSLATPPTLSSTVLIVRNEEASETVFPHDTTANVKSYFSNHDESLKKNDRFIASVTDSENTNQREAASHGFGKTSGNSFKVNSCKDHIGKSMPNVLEDEVYETVVDTSEEDSFSLCFSKCRTKNLQKVRTSKTRKKIFHEANADECEKSKNQVKEKYSFVSEVEPNDTDPLDSNVANQKPFESGSDKISKEVVPSLACEWSQLTLSGLNGAQMEKIPLLHISSCDQNISEKDLLDTENKRKKDFLTSENSLPRISSLPKSEKPLNEETVVNKRDEEQHLESHTDCILAVKQAISGTSPVASSFQGIKKSIFRIRESPKETFNASFSGHMTDPNFKKETEASESGLEIHTVCSQKEDSLCPNLIDNGSWPATTTQNSVALKNAGLISTLKKKTNKFIYAIHDETSYKGKKIPKDQKSELINCSAQFEANAFEAPLTFANADSGLLHSSVKRSCSQNDSEEPTLSLTSSFGTILRKCSRNETCSNNTVISQDLDYKEAKCNKEKLQLFITPEADSLSCLQE
B5: 2× MBP-BRCA2NT-FLAG-His10 (domain or fragment)
chain: MPIGSKERPTFFEIFKTRCNKADLGPISLNWFEELSSEAPPYNSEPAEESEHKNNNYEPNLFKTPQRKPSYNQLASTPIIFKEQGLTLPLYQSPVKELDKFKLDLGRNVPNSRHKSLRTVKTKMDQADDVSCPLLNSCLSESPVVLQCTHVTPQRDKSVVCGSLFHTPKFVKGRQTPKHISESLGAEVDPDMSWSSSLATPPTLSSTVLIVRNEEASETVFPHDTTANVKSYFSNHDESLKKNDRFIASVTDSENTNQREAASHGFGKTSGNSFKVNSCKDHIGKSMPNVLEDEVYETVVDTSEEDSFSLCFSKCRTKNLQKVRTSKTRKKIFHEANADECEKSKNQVKEKYSFVSEVEPNDTDPLDSNVANQKPFESGSDKISKEVVPSLACEWSQLTLSGLNGAQMEKIPLLHISSCDQNISEKDLLDTENKRKKDFLTSENSLPRISSLPKSEKPLNEETVVNKRDEEQHLESHTDCILAVKQAISGTSPVASSFQGIKKSIFRIRESPKETFNASFSGHMTDPNFKKETEASESGLEIHTVCSQKEDSLCPNLIDNGSWPATTTQNSVALKNAGLISTLKKKTNKFIYAIHDETSYKGKKIPKDQKSELINCSAQFEANAFEAPLTFANADSGLLHSSVKRSCSQNDSEEPTLSLTSSFGTILRKCSRNETCSNNTVISQDLDYKEAKCNKEKLQLFITPEADSLSCLQE

Common to all, as to test: pull-down
The test “GST-BRCA2NT-HA-His10” addresses B4.
The next test concerns the target T1, 2× MBP-BRCA2OB2-His10 (human, UniProt P51587 2780-3080).
T1 sequence: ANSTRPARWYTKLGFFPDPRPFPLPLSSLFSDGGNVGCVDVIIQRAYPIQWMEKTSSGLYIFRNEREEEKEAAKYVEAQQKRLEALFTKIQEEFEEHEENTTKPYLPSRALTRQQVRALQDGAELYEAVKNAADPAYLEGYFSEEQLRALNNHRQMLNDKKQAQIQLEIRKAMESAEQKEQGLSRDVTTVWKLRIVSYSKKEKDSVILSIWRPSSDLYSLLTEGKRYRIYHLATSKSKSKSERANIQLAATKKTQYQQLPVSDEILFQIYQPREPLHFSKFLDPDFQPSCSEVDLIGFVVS

The target in test [1] is B5.
The target in test [2] is B1.

Take B1: the “fold stronger than the interaction of MBP-BRCA2NT with GST-BRCA2NT” value with GST-BRCA2NT-HA-His10 was about 6 fold.

B2: GST-BRCA2N9 (domain or fragment)
chain: ILAVKQAISGTSPVASSFQGIKKSIFRIRESPKETFNASFSGHMTDPNFKKETEASESGLEIHTVCSQKEDSLCPNLIDNGSWPATTTQNSVALKNAGLISTLKKKTNKFIYAIHDETSYKGKKIPKDQKSELINCSAQFEANAFEAPLTFANADSGLLHSSVKRSCSQNDSEEPTLSLTSSFGTILRKCSRNETCSNNTVISQDLDYKEAKCNKEKLQLFITPEADSLSCLQE
Regarding B2, the binding result (with 2× MBP-BRCA2OB2-His10; in test [1]) was “binds” throughout.

B3: GST-BRCA2N7 (domain or fragment)
chain: VTDSENTNQREAASHGFGKTSGNSFKVNSCKDHIGKSMPNVLEDEVYETVVDTSEEDSFSLCFSKCRTKNLQKVRTSKTRKKIFHEANADECEKSKNQVKEKYSFVSEVEPNDTDPLDSNV
As for B3, the binding result in test [1] is “binds”.

For the molecule B4, in test [2], the binding result is listed as “binds”. For B5, the binding result in the test with GST-BRCA2NT-HA-His10 is on record as “binds”.
